Source: patent publication KR20220012792A (dated 2022)
Like-named read-outs stand apart in the source and are kept apart here.

Key:
Experiment in all cases: cell-based or functional assay
[1] = target: S 단백질 of SARS-CoV-2 hCoV-19/South Korea/KCDC9481/2020 (614G, G형) (SARS-CoV-2)
[2] = target: T1, S 단백질 of SARS-CoV-2 hCoV-19/South Korea/KUMC17/2020 (614G) (SARS-CoV-2)
[3] = target: T2, S 단백질 of SARS-CoV-2 hCoV-19/Korea/KCDC10847/2020 (GH형) (SARS-CoV-2)
[4] = target: T1, S 단백질 of SARS-CoV-2 hCoV-19/South …; remark: listed apart in the source
[5] = target: T1, S 단백질 of SARS-CoV-2 hCoV-19/South …; remark: listed apart in the source
[6] = target: S 단백질 of SARS-CoV-2 영국변이바이러스주 hCoV-19/South Korea/KDCA0838/2020 (SARS-CoV-2)
[7] = target: T1, S 단백질 of SARS-CoV-2 hCoV-19/South …; remark: listed apart in the source
[8] = target: T2, S 단백질 of SARS-CoV-2 …; remark: listed apart in the source

B1: No. 139 항체 (Full IgG) (antibody, V domains shown)
VH: QITLKESGPTLVKPTQTLTLTCSFSGFSLSTSGVGVGWIRQPPGKALEWLALIDWDDNKYHTTSLKTRLTISKDTSKNQVVLTMTNMDPVDTATYYCARIPGFLRYRNRYYYYGMDVWGQGTTVTVSS
VL: ELVLTQPPSVSAAPGQKVTISCSGSSSNIGNNYVSWYQQLPGTAPKLLIYDNNKRPSGIPDRFSGSKSGTSATLGITGLQTGDEADYYCGTWDSSLSAGVFGGGTELTVL
IC50 (ng/ml), PRNT [1]: 10.6 ng/mL
IC50 (ng/ml), PRNT [2]: 5.77 ng/mL
IC50 (ng/ml), PRNT [3]: 10.4 ng/mL
IC50, PRNT [4]: 5.73 ng/mL
IC50 (ng/ml), PRNT [5]: 3.37 ng/mL
IC50 (ng/ml), PRNT [6]: 9.62 ng/mL
IC50 (ng/ml), PRNT [7]: 4.22 ng/mL
IC50 (ng/ml), PRNT [8]: 9.31 ng/mL
